The source of these data is patent publication US8551717B2, “Method for determining sumoylation” (Medizinische Hochschule Hannover, priority 2008, dated 2013).

Assay [1] addresses T1, STAT1-FRB and STAT1-FKBP (Homo sapiens, UniProt P42224+P42345+P62942).
T1 construct: seven C-terminal amino acids of the human STAT1a in the STAT1-FKBP/FRB fusion proteins are missing; FKBP domain (in STAT1-FKBP); expressed in transfected cells; host or cells: HEK293
Put plainly: USDDS: AP21967-induced in vivo SUMOylation of STAT1 fusion proteins, western blot. In kind it is cell-based. To be noted: HEK293. The text has this: (§1) To identify new SUMOylation substrates and to study the function of SUMOylation the Ubc9/substrate dimerisation-dependent SUMOylation system (USDDS) was developed which consists of fusions of the SUMOylation substrate and of the SUMO-conjugating enzyme Ubc9 to the chemically activatable heterodimerisation domains FKBP and FRB, respectively, as shown in FIG. 2. When the substrate protein fused to FKBP is coexpressed with Ubc9-FRB, treatment of HEK293 cells with the rapamycin-related dimerizer AP21967 induces SUMOylation of the substrate protein fused to FKBP at its specific SUMOylation site. […] Dependent on an EcoRl site in the coding sequence, seven C-terminal amino acids of the human STAT1a in the STAT1-FKBP/FRB fusion proteins are missing. For the SUMOylation analysis HEK293 (human embryonic kidney cells) cells have been used. HEK293 cells were cultured in Dulbecco's modified Eagle's medium with high glucose, complemented with 10% fetal calf serum, 2 mM L-glutamine, 100 U/ml penicillin and […] streptomycin. We performed transfection of HEK293 cells using the polyethylenimine transfection reagent. HEK293 cells of a fresh confluent 10 cm plate were transferred on a 12-well plate. […]
(§2) When p53-FRB or STAT1-FRB were coexpressed with Ubc9-FKBP together with EGFP-SUMO1, no significant EGFP-SUMO1 conjugation of STAT1-FRB and of p53-FRB could be detected (FIG. 3A,B). […]
Background: A western blot detects proteins with antibodies after separation by electrophoresis.

The test system of assay [2] is p53-FRB and p53-FKBP. Put plainly: USDDS: AP21967-induced in vivo SUMOylation of p53 fusion proteins, western blot. It is filed as cell-based, human. To be noted: HEK293.
Description: as §1, §2

Assay [3] has as its target T2, U-p38α (Homo sapiens, UniProt P63279+Q16539).
T2 construct: expressed in transfected cells; host or cells: HEK293
As to the kind of experiment: Trans-SUMOylation by U-p38α. It is filed as cell-based. To be noted: protein 2 construct coexpressed with U-p38α and EGFP-SUMO1 in HEK293.

Assay [4] concerns the target T3, U-MK2 (Homo sapiens, UniProt P49137+P63279).
T3 construct: expressed in transfected cells; host or cells: HEK293
Put plainly: Trans-SUMOylation by U-MK2. It is filed as cell-based. Particulars: protein 2 construct coexpressed with U-MK2 and EGFP-SUMO1 in HEK293.

Assay [5] has as its target T4, p53-U (Homo sapiens, UniProt P04637+P63279).
T4 construct: expressed in transfected cells; host or cells: HEK293
As to the kind of experiment: Trans-SUMOylation by p53-U. In kind it is cell-based. Particulars: western blot.

Assay [6] deals with T5, JUN-U (Homo sapiens, UniProt P05412+P63279).
T5 construct: expressed in transfected cells; host or cells: HEK293
As to the kind of experiment: Trans-SUMOylation by JUN-U. It is filed as cell-based. To be noted: protein 2 construct coexpressed with JUN-U and EGFP-SUMO1 in HEK293; western blot; Table 2.

The target of assay [7] is T6, MK2-U (Homo sapiens, UniProt P49137+P63279).
T6 construct: expressed in transfected cells; host or cells: HEK293
Put plainly: Trans-SUMOylation by MK2-U. In kind it is cell-based. Particulars: protein 2 construct coexpressed with MK2-U and EGFP-SUMO1 in HEK293.

Assay [8] has as its target T7, U-CSNK2B (Homo sapiens, UniProt P63279+P67870).
T7 construct: expressed in transfected cells; host or cells: HEK293
As to the kind of experiment: Trans-SUMOylation by U-CSNK2B. In kind it is cell-based. Also on record: key: (++), strong TransSUMOylation; (+), TransSUMOylation; (+/−) weak TransSUMOylation; (−) no detectable TransSUMOylation. Particulars: protein 2 construct coexpressed with U-CSNK2B and EGFP-SUMO1 in HEK293, western blot.
Description: as §1, with “plate. After 12-24 h incubation about 70% cell confluence is reached. For each well 45 μl of serum/antibiotic free DMEM medium is mixed with 750 ng of the transfection-purity expression vector DNA (all together 47 μl) and vortexed. Then, 3 μl of vortexed polyethylenimin stock solution (1 mg/ml) is added and the mixture is vortexed. After incubation at room temperature for 10 min 450 μl fresh DMEM with antibiotics is added to the mixture and vortexed. The medium on the cells was then completely removed and immediately, the 500 μl transfection mix was added carefully to each well.” for “plate.”
(§3) As shown above, the SUMOylation of a protein of interest can be induced by the heterodimerisation with a binding protein fused to Ubc9. […] Therefore the protein pairs were coexpressed with EGFP-SUMO1 in HEK293 cells and after 24h the transfectants were lysed and the protein extracts were analyzed in western blots. […]

The target of assay [9] is T8, U-MK5 (Homo sapiens, UniProt P63279+Q8IW41).
T8 construct: expressed in transfected cells; host or cells: HEK293
Put plainly: Trans-SUMOylation by U-MK5. In kind it is cell-based. Set-up: key: (++), strong TransSUMOylation; (+), TransSUMOylation; (+/−) weak TransSUMOylation; (−) no detectable TransSUMOylation. Particulars: protein 2 construct coexpressed with U-MK5 and EGFP-SUMO1 in HEK293, western blot. The text has this:
To identify new SUMOylation substrates and to study the function of SUMOylation the Ubc9/substrate dimerisation-dependent SUMOylation system (USDDS) was developed which consists of fusions of the SUMOylation substrate and of the SUMO-conjugating enzyme Ubc9 to the chemically activatable heterodimerisation domains FKBP and FRB, respectively, as shown in FIG. 2. When the substrate protein fused to FKBP is coexpressed with Ubc9-FRB, treatment of HEK293 cells with the rapamycin-related dimerizer AP21967 induces SUMOylation of the substrate protein fused to FKBP at its specific SUMOylation site. […] Dependent on an EcoRl site in the coding sequence, seven C-terminal amino acids of the human STAT1a in the STAT1-FKBP/FRB fusion proteins are missing. For the SUMOylation analysis HEK293 (human embryonic kidney cells) cells have been used. HEK293 cells were cultured in Dulbecco's modified Eagle's medium with high glucose, complemented with 10% fetal calf serum, 2 mM L-glutamine, 100 U/ml penicillin and […] streptomycin. We performed transfection of HEK293 cells using the polyethylenimine transfection reagent. HEK293 cells of a fresh confluent 10 cm plate were transferred on a 12-well plate. After 12-24 h incubation about 70% cell confluence is reached. For each well 45 μl of serum/antibiotic free DMEM medium is mixed with 750 ng of the transfection-purity expression vector DNA (all together 47 μl) and vortexed. Then, 3 μl of vortexed polyethylenimin stock solution (1 mg/ml) is added and the mixture is vortexed. After incubation at room temperature for 10 min 450 μl fresh DMEM with antibiotics is added to the mixture and vortexed. The medium on the cells was then completely removed and immediately, the 500 μl transfection mix was added carefully to each well. The 12 well plate was rocked to ensure a proper distribution of the DNA/transfection reagent complex. After an incubation of the cells for 24 h at a 37° C. in a humidified CO2-incubator (5%) the cells were lysed in 150 μl Laemmli (2×) gel loading buffer (160 mM Tris-HCL, pH 6.8, 4% (w/v) sodium dodecyl sulphate (SDS), 20% (v/v) glycerol, 0.5% β-mercaptoethanol (v/v), 0.008% (w/v) bromophenol blue) and incubated for 10 min at 95° C. For western blot analysis the proteins were separated by SDS-PAGE, blotted on a PVDF membrane and developed with specific primary antibodies (α-Ubc9 (H81, Santa Cruz), α-pY701-STAT1 (Tyr701, Cell Signaling), α-STAT1 (Cell Signaling), α-p53 (1C12, Cell Signaling), α-SUMO1 (Cell Signaling), a horseradish peroxidase (HRP)-conjugated secondary antibody (different companies), the ECL+ (Amersham) or Immobilon™ Western (Millipore) and the LAS-3000 imaging system (Fuji).
As shown above, the SUMOylation of a protein of interest can be induced by the heterodimerisation with a binding protein fused to Ubc9. To find out if Trans-SUMOylation is useful for the characterisation of common protein interactions, protein binding pairs well known from the literature or found in two hybrid screens. […] Therefore the protein pairs were coexpressed with EGFP-SUMO1 in HEK293 cells and after 24h the transfectants were lysed and the protein extracts were analyzed in western blots.
Protein-protein interactions described in the cited references were tested for Trans-SUMOylation. Each specific protein-protein interaction was tested by coexpression of different combinations of protein 1 fused to Ubc9 (U) with protein 2 mostly fused two a tag (HA, FLAG, Myc, GST, ST). (++), strong TransSUMOylation; (+), TransSUMOylation; (+/−) weak TransSUMOylation; (−) no detectable TransSUMOylation; (MEKK1ca) the activated MAP3 kinase MEKK1, that can enhance protein SUMOylation, was coexpressed.
Protein-protein interaction of each pair of protein 1/protein 2 was tested by coexpression of different combinations of a protein 1 fused to Ubc9 (U) with protein 2 mostly fused two a Tag (HA, FLAG, GST, ST). […]

The target of assay [10] is T9, U-PSMC3 (Homo sapiens, UniProt P17980+P63279).
T9 construct: expressed in transfected cells; host or cells: HEK293
Put plainly: Trans-SUMOylation by U-PSMC3. In kind it is cell-based. Also on record: key: (++), strong TransSUMOylation; (+), TransSUMOylation; (+/−) weak TransSUMOylation; (−) no detectable TransSUMOylation. Particulars: protein 2 construct coexpressed with U-PSMC3 and EGFP-SUMO1 in HEK293; western blot; Table 1.
Description: as §1, with “streptomycin.” for “streptomycin. We performed transfection of HEK293 cells using the polyethylenimine transfection reagent. HEK293 cells of a fresh confluent 10 cm plate were transferred on a 12-well plate.”
as §3

[11] abbreviates: protein 2 construct coexpressed with P53-U (p53-U) and EGFP-SUMO1 in HEK293, Table 1.

T3 sequence (P63279+P49137 fused): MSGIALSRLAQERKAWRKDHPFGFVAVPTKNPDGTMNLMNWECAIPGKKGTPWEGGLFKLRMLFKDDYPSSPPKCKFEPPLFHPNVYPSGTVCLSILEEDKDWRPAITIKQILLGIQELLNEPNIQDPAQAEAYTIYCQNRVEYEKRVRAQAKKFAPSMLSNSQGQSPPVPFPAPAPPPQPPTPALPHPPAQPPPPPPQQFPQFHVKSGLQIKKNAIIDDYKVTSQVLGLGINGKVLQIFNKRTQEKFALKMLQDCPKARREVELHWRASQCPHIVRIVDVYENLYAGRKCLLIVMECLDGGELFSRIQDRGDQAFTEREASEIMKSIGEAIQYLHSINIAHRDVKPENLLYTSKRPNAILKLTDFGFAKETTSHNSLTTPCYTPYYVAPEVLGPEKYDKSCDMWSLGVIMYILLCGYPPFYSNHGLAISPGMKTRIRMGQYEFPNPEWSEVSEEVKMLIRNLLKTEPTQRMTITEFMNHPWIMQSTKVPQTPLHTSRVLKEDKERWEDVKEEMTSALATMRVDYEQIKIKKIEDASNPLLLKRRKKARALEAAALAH
T8 sequence (P63279+Q8IW41 fused): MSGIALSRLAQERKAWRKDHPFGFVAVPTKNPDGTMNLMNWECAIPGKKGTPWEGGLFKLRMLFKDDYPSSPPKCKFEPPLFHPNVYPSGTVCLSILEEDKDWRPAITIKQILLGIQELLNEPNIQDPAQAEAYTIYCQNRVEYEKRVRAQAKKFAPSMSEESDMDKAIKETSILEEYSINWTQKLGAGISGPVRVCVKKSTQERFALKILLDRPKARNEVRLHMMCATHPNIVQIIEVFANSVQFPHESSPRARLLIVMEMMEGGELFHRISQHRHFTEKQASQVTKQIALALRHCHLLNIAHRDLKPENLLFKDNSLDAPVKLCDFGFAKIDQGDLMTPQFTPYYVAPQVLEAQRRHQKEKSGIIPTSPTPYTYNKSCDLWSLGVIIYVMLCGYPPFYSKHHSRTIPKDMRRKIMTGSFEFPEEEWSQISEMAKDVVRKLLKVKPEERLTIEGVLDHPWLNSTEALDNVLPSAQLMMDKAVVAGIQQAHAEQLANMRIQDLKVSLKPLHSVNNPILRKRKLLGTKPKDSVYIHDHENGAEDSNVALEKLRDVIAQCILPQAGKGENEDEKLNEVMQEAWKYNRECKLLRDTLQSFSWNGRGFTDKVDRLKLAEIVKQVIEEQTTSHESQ
T6 sequence (P49137+P63279 fused): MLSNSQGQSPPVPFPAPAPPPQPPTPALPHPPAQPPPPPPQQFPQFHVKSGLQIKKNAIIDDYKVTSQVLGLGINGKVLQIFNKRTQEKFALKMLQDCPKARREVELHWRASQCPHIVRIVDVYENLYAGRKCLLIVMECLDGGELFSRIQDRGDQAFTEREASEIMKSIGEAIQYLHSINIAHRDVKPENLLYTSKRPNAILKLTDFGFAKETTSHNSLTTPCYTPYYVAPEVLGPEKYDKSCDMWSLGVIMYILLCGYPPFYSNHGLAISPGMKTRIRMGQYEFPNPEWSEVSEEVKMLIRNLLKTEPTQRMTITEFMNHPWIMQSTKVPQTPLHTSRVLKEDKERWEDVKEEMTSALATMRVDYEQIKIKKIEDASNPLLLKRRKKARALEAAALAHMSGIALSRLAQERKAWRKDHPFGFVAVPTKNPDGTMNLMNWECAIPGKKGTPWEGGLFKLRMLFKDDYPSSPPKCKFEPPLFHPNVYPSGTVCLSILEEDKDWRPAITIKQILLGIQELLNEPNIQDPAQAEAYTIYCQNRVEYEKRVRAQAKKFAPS
T2 sequence (P63279+Q16539 fused): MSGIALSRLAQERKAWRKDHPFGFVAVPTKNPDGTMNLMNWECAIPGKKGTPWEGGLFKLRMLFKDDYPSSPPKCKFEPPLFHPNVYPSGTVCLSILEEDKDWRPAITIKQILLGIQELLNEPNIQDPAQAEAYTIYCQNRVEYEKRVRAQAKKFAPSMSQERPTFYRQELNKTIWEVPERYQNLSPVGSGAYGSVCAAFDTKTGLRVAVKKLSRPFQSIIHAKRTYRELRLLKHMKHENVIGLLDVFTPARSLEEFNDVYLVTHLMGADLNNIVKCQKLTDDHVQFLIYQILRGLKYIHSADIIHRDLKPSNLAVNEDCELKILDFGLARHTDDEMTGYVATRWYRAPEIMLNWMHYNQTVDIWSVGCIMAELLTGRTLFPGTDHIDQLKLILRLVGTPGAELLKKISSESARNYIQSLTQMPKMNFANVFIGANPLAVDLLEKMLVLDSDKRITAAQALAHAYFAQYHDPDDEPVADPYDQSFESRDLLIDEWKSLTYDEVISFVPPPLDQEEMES
T5 sequence (P05412+P63279 fused): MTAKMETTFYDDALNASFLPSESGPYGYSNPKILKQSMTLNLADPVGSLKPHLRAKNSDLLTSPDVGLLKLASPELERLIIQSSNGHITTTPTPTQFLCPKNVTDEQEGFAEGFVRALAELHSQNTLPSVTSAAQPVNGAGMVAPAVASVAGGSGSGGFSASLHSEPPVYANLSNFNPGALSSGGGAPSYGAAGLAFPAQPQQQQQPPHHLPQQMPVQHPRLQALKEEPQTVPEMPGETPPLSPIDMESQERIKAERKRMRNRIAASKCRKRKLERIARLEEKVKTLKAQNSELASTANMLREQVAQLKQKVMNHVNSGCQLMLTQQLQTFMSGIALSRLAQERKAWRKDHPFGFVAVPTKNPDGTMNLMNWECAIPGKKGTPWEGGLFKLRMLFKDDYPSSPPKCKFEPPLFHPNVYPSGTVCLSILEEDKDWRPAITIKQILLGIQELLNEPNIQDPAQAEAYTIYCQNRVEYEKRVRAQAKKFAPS
T7 sequence (P63279+P67870 fused): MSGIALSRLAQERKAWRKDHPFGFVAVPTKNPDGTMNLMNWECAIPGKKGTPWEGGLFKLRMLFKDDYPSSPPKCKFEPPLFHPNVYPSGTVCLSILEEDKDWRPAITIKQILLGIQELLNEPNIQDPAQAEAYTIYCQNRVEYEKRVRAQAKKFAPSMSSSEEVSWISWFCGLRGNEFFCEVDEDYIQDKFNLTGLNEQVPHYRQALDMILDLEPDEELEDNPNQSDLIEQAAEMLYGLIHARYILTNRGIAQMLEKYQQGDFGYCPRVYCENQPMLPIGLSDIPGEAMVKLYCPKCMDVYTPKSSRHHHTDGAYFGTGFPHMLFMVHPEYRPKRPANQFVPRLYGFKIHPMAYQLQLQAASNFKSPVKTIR
T1 sequence (P42224 1-743 limits assumed): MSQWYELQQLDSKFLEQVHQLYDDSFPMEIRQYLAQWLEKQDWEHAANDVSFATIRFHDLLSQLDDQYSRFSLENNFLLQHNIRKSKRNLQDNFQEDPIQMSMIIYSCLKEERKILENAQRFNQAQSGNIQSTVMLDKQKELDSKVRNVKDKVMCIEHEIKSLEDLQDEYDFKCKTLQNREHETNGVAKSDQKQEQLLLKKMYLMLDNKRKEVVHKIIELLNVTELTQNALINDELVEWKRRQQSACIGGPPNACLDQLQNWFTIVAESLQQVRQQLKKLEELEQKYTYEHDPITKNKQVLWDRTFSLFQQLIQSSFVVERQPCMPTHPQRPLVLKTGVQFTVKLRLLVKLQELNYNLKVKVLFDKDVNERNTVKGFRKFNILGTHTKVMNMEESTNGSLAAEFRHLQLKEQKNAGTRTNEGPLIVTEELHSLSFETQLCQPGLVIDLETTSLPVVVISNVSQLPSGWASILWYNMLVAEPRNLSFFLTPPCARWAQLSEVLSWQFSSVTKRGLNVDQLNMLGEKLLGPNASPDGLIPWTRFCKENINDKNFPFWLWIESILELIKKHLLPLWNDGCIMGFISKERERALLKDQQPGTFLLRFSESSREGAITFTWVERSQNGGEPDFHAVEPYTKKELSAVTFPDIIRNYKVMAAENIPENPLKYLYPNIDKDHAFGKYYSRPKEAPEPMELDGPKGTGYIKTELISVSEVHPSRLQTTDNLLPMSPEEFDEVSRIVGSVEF
T1 sequence (P63279 whole entry partner, the tested form may be a part): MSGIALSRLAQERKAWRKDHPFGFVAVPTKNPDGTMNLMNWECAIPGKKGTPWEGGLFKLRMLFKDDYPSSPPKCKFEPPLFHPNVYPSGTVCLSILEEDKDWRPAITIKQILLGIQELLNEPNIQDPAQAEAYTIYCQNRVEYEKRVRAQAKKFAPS
T1 sequence (P62942 2-108 limits assumed): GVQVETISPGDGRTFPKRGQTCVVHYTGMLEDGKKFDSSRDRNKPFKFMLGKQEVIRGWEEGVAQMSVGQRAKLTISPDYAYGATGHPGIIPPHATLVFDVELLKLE
T1 sequence (P42345 2021-2113 limits assumed): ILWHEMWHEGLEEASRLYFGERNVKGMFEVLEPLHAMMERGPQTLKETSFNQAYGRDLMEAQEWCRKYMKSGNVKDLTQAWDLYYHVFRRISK
T9 sequence (P63279+P17980 fused): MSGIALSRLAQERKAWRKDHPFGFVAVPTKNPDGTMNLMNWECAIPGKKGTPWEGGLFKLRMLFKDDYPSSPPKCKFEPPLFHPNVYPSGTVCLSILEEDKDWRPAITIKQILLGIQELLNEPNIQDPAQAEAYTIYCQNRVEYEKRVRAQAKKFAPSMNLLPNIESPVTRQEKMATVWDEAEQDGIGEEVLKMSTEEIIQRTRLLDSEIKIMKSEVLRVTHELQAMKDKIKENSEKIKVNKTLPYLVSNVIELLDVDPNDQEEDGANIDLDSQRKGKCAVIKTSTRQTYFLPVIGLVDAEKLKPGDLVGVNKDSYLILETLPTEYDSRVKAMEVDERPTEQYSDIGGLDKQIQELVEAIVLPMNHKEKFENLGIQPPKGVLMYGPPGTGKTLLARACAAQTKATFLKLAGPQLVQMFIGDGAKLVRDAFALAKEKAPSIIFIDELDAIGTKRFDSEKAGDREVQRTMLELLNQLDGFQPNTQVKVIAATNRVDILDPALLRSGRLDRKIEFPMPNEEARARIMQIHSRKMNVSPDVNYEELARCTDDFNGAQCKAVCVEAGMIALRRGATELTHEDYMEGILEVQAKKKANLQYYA

Consider `CO[C@H]1[C@@H](O)[C@H](C)C[C@H](C)/C=C/C=C/C=C(\C)[C@@H](c2c[nH]c3c(C)cccc23)C[C@@H]2CC[C@@H](C)[C@@](O)(O2)C(=O)C(=O)N2CCCC[C@H]2C(=O)O[C@H]([C@H](C)C[C@@H]2CC[C@@H](O)[C@H](OC)C2)C[C@H](O)[C@H](C)/C=C(\C)[C@H]1O` [AP21967], for which, in [1] (STAT1-FKBP in combination with Ubc9-FRB and EGFP-SUMO1, AP21967), the “SUMOylation of STAT1-FKBP” value is listed as “induced SUMOylation”. Besides, the “SUMOylation of STAT1-FRB” value in assay [1] (STAT1-FRB coexpressed with Ubc9-FKBP and EGFP-SUMO1, AP21967 1 μM, western blot α-STAT1) is on record as “strongly enhanced SUMOylation”. For the same compound, the “SUMOylation of p53-FKBP” value in assay [2] (p53-FKBP in combination with Ubc9-FRB and EGFP-SUMO1, AP21967) is on record as “induced SUMOylation”. Also, the “SUMOylation of p53-FRB” value in assay [2] (p53-FRB coexpressed with Ubc9-FKBP and EGFP-SUMO1, AP21967 1 μM, western blot α-p53) is “strongly enhanced SUMOylation”.
On to “ERK1: ERK1, protein 2 construct without tag”, for which the Trans-SUMOylation result is given as “+” in assay [3] (western blot, Table 1); “+” in [4] (western blot, Table 2); “−” in assay [5] (setting [11]).
For FLAG-p38α: p38α fused to FLAG tag, the Trans-SUMOylation entry in assay [6] is given as “−”; in assay [7] (western blot, Table 1), “+”; in assay [4] (western blot, Table 1), “+”; in assay [5] (setting [11]), “−”; in assay [8] (Table 1) it was “−”; in assay [9] (Table 1), “+”.
Take GST-ERK3: ERK3 fused to GST tag: the Trans-SUMOylation result in assay [3] (western blot, Table 2) is given as “−”; in assay [4] (western blot, Table 2) it was “−”; in [9] (Table 1), “+”.
As to GST-FOS: FOS fused to GST tag, in [7] (western blot, Table 2), the Trans-SUMOylation entry is on record as “−”.
Regarding GST-MK2: MK2 fused to GST tag, the Trans-SUMOylation entry is “−” in assay [6]; “++ (MEKK1)” in assay [7] (MEKK1 coexpressed, Table 2); “+” in assay [7] (western blot, Table 2); “++ (MEKK1ca)” in assay [3] (MEKK1ca (Table 1B: MEKK1) coexpressed, Table 1); “+” in assay [3] (western blot, Table 1); “++ (MEKK1)” in assay [4] (MEKK1 coexpressed, Table 2). The Trans-SUMOylation entry in assay [4] (western blot, Table 2) was “+”; in [5] (protein 2 construct coexpressed with p53-U and EGFP-SUMO1 in HEK293, Table 2), “−”; in assay [8] (Table 2), “(+/−)”; in assay [9] (Table 2), “(+/−)”.
With GST-PSMC3: PSMC3 fused to GST tag, the Trans-SUMOylation entry in assay [7] (western blot, Table 2) is reported as “−”; in assay [10], “+”.
